Source: US8642729B2, “Opiorphin peptide derivatives as potent inhibitors of enkephalin-degrading ectopeptidases” (Institut Pasteur, priority 2008, dated 2014)
Non-standard residues stand in square brackets, D forms with d. No end group written: not given here. 12Ado = NCCCCCCCCCCCC(=O)O; Ahx = NCCCCCC(=O)O

What was measured:
[1] = biological target: T1, membrane-bound human NEP expressed by LNCaP epithelial cells (Homo sapiens, UniProt P08473); experiment: Substance P cleavage by membrane-bound hNEP (human cell membranes); assay type: biochemical; settings: fold increase, same test
T1 construct: endogenous in cells; host or cells: LNCaP epithelial cells (membranes)

human NEP = biological target: T2, human NEP (Homo sapiens, UniProt P08473); experiment: Screening of Opiorphin peptide-derivatives on hNEP (endopeptidase and carboxydipeptidase activities); assay type: biochemical; settings: for inhibitory preference / dual inhibition, human NEP versus human AP-N (in words): hNEP endopeptidase and carboxydipeptidase activities versus hAP-N; for inhibitory potency towards hNEP as compared to Opiorphin-QRFSR native peptide (in words): relative to native peptide; for inhibitory potency towards human NEP (in words): screening, 50 μM final concentration
T2 construct: devoid of their respective N-terminal cytosol and transmembrane segment; purchased R&D Systems
Protocol: (§1) According to conditions of initial velocity measurement: the time, pH and temperature of incubation as well as enzyme and substrate concentrations were defined for each assay. Hydrolysis of substrates was measured by real-time monitoring their metabolism rate by the two peptidases in the presence and absence of tested inhibitory compound (concentrations ranging from 1 to 50 μM). These were added to the preincubation medium. The background rate of substrate autolysis representing the fluorescent signal obtained in the absence of enzyme was subtracted to calculate the initial velocities in RFU (Relative Fluorescent Unit)/min.
([…] successive measures) by using a fluorimeter microplate reader (monochromator Infinite 200-Tecan) at 320 nm and 420 nm excitation and emission wavelengths, respectively.
Using black half-area 96 well microplate, the standard reaction consisted of enzyme (2.5 ng) in 100 mM Tris-HCl pH 6.5 containing 50 mM NaCl (100 μl final volume). The substrate (4 μM final concentration) was added after preincubation for 10 min and the kinetics of appearance of the fluorescent signal (RFU) was directly analyzed for 40 min at 28° C. (2.3 min-interval successive measures) by using the fluorimeter reader at 320 nm excitation and 420 nm emission wavelengths.
In addition, the intramolecularly quenched fluorogenic peptide, Mca-BK2 (10 μM), was submitted to hydrolysis by 5 ng rhNEP under the same experimental conditions as those described behind.
(§2) Compounds were tested in triplicate at 50 μM final concentration.

recombinant human AP-N = biological target: T3, recombinant human AP-N (Homo sapiens, UniProt P15144); experiment: AP-N-ectopeptidase activity, Ala-Mca substrate; assay type: biochemical; settings: for inhibitory potency towards hAP-N as compared to Opiorphin-QRFSR native peptide (in words): relative to native peptide
T3 construct: devoid of their respective N-terminal cytosol and transmembrane segment; purchased R&D Systems
Protocol: Formal kinetic analysis was performed for each assay using real-time fluorescence monitoring of specific substrate hydrolysis.
Recombinant human NEP and recombinant human AP-N (devoid of their respective N-terminal cytosol and transmembrane segment) that were purchased from R&D Systems, were used as pure source of peptidase.
FRET is the distance-dependant transfer of energy from a donor fluorophore (Abz=ortho-aminobenzoyl or Mca=7-methoxycoumarin-4-yl-acetyl) to an acceptor fluorophore (DnpOH=2,4-dinitrophenyl or EDDnp=2,4-dinitrophenyl ethylenediamine). • L-alanine-Mca, Ala-Mca, a fluorogenic substrate for measuring aminopeptidase activity was purchased from Sigma.
as §1
Measurement of AP-N-Ectopeptidase Activity Using Ala-Mca Substrate.
Using black half-area 96 well microplate the standard reaction consisted of enzyme (4 ng) in 100 mM Tris-HCl pH 7.0 (100 μl final volume).
as §2

[2] = biological target: T4, Recombinant human AP-N (aminopeptidase N, EC 3.4.11.2), devoid of its N-terminal cytosol and transmembrane … (human, UniProt P15144 33-967); experiment: cell-based or functional assay
[3] = biological target: T4, Recombinant human AP-N (aminopeptidase …); experiment: cell-based or functional assay; remark: listed apart in the source
[4] = biological target: Recombinant human NEP (neutral endopeptidase, EC 3.4.24.11), devoid of its N-terminal cytosol and … (human, UniProt P08473 52-750); experiment: cell-based or functional assay
Recombinant human NEP (neutral endopeptidase, EC 3.4.24.11), devoid of its N-terminal cytosol and …, sequence (P08473 52-750): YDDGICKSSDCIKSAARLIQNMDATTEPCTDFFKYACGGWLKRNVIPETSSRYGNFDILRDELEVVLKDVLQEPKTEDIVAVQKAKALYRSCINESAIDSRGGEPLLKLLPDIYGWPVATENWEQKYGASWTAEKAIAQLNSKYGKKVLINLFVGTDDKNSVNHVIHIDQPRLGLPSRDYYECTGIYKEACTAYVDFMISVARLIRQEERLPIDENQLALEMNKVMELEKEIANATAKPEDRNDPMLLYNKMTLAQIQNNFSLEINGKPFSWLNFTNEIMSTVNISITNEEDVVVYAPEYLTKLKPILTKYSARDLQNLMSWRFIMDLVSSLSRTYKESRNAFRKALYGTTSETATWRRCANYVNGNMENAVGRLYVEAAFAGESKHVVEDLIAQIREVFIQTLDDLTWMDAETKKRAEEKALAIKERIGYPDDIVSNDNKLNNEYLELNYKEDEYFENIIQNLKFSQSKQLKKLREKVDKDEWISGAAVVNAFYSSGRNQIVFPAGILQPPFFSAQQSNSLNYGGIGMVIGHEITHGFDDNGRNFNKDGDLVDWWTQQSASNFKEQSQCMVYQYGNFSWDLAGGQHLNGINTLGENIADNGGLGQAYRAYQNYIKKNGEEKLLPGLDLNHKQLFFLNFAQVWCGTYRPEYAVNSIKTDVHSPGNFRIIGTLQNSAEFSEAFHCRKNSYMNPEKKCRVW

T2 sequence (P08473 52-750 limits assumed): as the sequence (P08473 52-750) above
T4 sequence (P15144 33-967): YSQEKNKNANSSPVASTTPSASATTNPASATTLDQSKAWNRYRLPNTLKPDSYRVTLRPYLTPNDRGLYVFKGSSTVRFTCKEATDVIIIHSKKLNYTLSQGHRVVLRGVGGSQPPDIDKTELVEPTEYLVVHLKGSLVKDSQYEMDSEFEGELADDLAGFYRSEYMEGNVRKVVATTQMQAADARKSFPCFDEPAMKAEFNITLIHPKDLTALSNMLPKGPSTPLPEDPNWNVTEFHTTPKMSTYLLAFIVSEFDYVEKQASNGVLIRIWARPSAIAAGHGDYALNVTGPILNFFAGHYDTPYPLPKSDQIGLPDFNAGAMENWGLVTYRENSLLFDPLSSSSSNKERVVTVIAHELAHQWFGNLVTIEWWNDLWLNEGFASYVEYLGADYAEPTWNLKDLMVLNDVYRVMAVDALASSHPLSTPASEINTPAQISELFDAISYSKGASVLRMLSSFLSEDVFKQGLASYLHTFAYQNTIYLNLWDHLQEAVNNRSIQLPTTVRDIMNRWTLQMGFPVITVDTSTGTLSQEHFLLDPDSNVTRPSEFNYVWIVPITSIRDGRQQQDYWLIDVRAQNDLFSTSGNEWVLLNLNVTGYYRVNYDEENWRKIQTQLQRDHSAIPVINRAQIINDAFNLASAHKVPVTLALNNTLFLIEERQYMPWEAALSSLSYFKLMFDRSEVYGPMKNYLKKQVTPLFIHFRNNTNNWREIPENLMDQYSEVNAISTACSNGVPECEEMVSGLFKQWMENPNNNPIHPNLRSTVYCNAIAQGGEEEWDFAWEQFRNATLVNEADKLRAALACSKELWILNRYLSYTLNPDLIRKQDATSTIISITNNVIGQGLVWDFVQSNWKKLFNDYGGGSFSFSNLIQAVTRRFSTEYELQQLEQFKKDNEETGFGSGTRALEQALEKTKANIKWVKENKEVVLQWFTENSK
T3 sequence (P15144 33-967 limits assumed): as the sequence (P15144 33-967) above
T1 sequence (P08473 whole entry): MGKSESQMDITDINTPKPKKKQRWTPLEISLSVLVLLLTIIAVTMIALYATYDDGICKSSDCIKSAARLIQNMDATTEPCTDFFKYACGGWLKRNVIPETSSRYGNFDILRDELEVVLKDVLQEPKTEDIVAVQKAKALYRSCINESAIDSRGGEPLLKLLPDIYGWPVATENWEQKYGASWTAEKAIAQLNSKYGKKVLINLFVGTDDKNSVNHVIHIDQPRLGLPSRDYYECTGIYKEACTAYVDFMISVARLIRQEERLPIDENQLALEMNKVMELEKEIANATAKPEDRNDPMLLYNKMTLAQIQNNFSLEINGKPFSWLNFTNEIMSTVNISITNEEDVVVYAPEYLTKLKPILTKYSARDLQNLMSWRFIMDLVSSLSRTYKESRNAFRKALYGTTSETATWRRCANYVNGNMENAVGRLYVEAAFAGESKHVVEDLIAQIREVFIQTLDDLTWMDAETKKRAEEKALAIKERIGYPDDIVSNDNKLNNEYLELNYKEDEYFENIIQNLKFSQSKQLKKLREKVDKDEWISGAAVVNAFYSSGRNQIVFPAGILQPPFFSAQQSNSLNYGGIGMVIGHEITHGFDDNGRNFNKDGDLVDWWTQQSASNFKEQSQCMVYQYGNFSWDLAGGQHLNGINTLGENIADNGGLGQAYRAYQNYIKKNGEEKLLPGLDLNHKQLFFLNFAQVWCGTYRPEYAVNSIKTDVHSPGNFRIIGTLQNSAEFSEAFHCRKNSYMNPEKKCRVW

CCCCCCCC(=O)OC[C@H](NC(=O)[C@H](Cc1ccccc1)NC(=O)[C@H](CCCNC(=N)N)NC(=O)[C@H](CCC(N)=O)NC(=O)CCCCCCNC(=O)[C@@H](N)CS)C(=O)N[C@@H](CCCNC(=N)N)C(=O)O [C-[PE6]-QRFS[O-C8]R, C—(—HN—(CH2)6—CO—)-QRF—S(O-octanoyl)-R]
increase inhibitory potency compared to Opiorphin native peptide, Substance P test [1]: at least 5 fold

N=C(N)NCCC[C@H](NC(=O)[C@H](CO)NC(=O)[C@H](Cc1ccccc1)NC(=O)[C@H](CCCNC(=N)N)NC(=O)[C@H](CCC(N)=O)NC(=O)[C@@H](N)CS)C(=O)O [CQRFSR]
reinforced inhibitory potency towards hNEP compared to QRFSR native peptide (human NEP; fold increase): 5 fold
inhibitory preference / dual inhibition, human NEP versus human AP-N (in words) (human NEP): potent dual inhibitors

N=C(N)NCCC[C@H](NC(=O)[C@H](CO)NC(=O)[C@H](Cc1ccccc1)NC(=O)[C@H](CCCNC(=N)N)NC(=O)[C@H](CCC(N)=O)NC(=O)CCCCCCCCCCCCNC(=O)[C@@H](N)Cc1ccc(O)cc1)C(=O)O [Y-[PE12]QRFSR, Y—(—HN—(CH2)12—CO—)-QRFSR]
inhibitory preference / dual inhibition, human NEP versus human AP-N (in words) (human NEP; listed as NH2-Y(PE12)QRFSR—COOH): potent dual inhibitors
inhibitory preference / dual inhibition, human NEP versus human AP-N (in words) (human NEP; listed as NH2-Y—(C12-polyethylene)QRFSR—COOH): inhibitory preference for human NEP endopeptidase activity
inhibitory preference / dual inhibition, human NEP versus human AP-N (in words) (human NEP; listed as Y—(C12-polyethylene)QRFSR): inhibitory preference for human NEP endopeptidase activity

N=C(N)NCCC[C@H](NC(=O)[C@H](CO)NC(=O)[C@H](Cc1ccccc1)NC(=O)[C@H](CCCNC(=N)N)NC(=O)[C@H](CCC(N)=O)NC(=O)[C@@H](N)CSSC[C@H](N)C(=O)N[C@@H](CCC(N)=O)C(=O)N[C@@H](CCCNC(=N)N)C(=O)N[C@@H](Cc1ccccc1)C(=O)N[C@@H](CO)C(=O)N[C@@H](CCCNC(=N)N)C(=O)O)C(=O)O [[CQRFSR]2]
increase inhibitory potency towards hNEP-Endo and CarboxyDi-peptidase activities compared to CQRFSR monomer peptide (human NEP; fold increase): at least 2 fold

QHNPR
inhibitory potency towards hAP-N as compared to Opiorphin-QRFSR native peptide (in words) (recombinant human AP-N): equivalent inhibitory potency
inhibitory preference / dual inhibition, human NEP versus human AP-N (in words) (human NEP): inhibitory preference for human AP-N
inhibitory potency towards hNEP as compared to Opiorphin-QRFSR native peptide (in words) (human NEP): weak inhibitory potency
inhibitory potency towards human NEP (in words) (human NEP): weak inhibitory potency

QKFSR
inhibitory potency towards hNEP as compared to Opiorphin-QRFSR native peptide (in words) (human NEP): light reduction in inhibitory potency

QRFPR
inhibitory potency towards hAP-N as compared to Opiorphin-QRFSR native peptide (in words) (recombinant human AP-N): equivalent inhibitory potency
inhibitory preference / dual inhibition, human NEP versus human AP-N (in words) (human NEP): inhibitory preference for human AP-N
inhibitory potency towards hNEP as compared to Opiorphin-QRFSR native peptide (in words) (human NEP): weak inhibitory potency
inhibitory potency towards human NEP (in words) (human NEP): weak inhibitory potency

QRFSK (H-QRFSK-OH)
inhibitory potency towards hNEP as compared to Opiorphin-QRFSR native peptide (in words) (human NEP): equivalent inhibitory potency

QRGPR (H-QRGPR-OH)
inhibitory potency towards hAP-N as compared to Opiorphin-QRFSR native peptide (in words) (recombinant human AP-N): equivalent inhibitory potency
inhibitory preference / dual inhibition, human NEP versus human AP-N (in words) (human NEP): inhibitory preference for human AP-N
inhibitory potency towards hNEP as compared to Opiorphin-QRFSR native peptide (in words) (human NEP): weak inhibitory potency
inhibitory potency towards human NEP (in words) (human NEP): weak inhibitory potency

dR-dS-dF-dR-dQ ([dR][dS][dF][dR][dQ]) [NH2-dRdSdFdRdQ-COOH]
inhibitory potency towards human AP-N (in words) (recombinant human AP-N; screening, 50 μM final concentration): did not display significant inhibitory activity
inhibitory preference / dual inhibition, human NEP versus human AP-N (in words) (human NEP): preference for AP-N activity
inhibitory potency towards human NEP (in words) (human NEP): did not display significant inhibitory activity

H-QRFSK-OH [NH2-QRFSK-COOH]
fold decrease in inhibitory potency compared to Opiorphin-QRFSR native peptide [2]: 10 fold

H-C[12Ado]QRFSR-OH [NH2-C-(C12-polyethylene)QRFSR-COOH]
IC50, µM towards hAP-N (Ala-AMC cleavage) [3]: 0.8 µM

H-C[Ahx]QRFSR-OH [NH2-C-(C6-polyethylene)QRFSR-COOH]
IC50, µM towards hAP-N (Ala-AMC cleavage) [3]: 0.8 µM
IC50, µM towards hNEP-Endopeptidase (Abz-dR-G-L-EDDnp cleavage) [4]: 40 µM

H-QKFSR-OH [NH2-QKFSR-COOH]
fold decrease in inhibitory potency compared to Opiorphin-QRFSR native peptide [2]: > 10 fold
